Experimental data from patent US20260167728A1 (published 2026).

biological target: T1, huCD3e-mFc (human, UniProt P07766 23-126); test: Pool 3 screen
T1 construct: not shown: mFc, not described
T1 sequence (P07766 23-126): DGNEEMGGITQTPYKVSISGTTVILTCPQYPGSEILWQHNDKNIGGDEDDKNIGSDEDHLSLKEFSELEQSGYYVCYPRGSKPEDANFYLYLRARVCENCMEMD

| Kd | Binder |
| --- | --- |
| 36.6 nM | AC3804 (CD3.300) (scFv, V domains shown, Pool 3 format (remarks)) VH: EVQLVESGGGIVQPGGSLRLSCAASGFTFSTYAMNWVRQAPGKGLEWVGRIRTKRNNYATYYADSVKGRFTISRDDSKNTVYLQMNSLKTEDTAVYYCVRHENFGNSYVSWFAHWGQGTLVTVSS VL: ELVVTQEPSLTVSPGGTVTLTCRSSNGAVTSSNYANWVQQKPGQAPRGLIGGTNKRAPGTPARFSGSLLEGKAALTLSGVQPEDEAVYYCALWYPNLWVFGGGTKLTVL |
| 4.02 nM | AC3818 (CD3.314) (scFv, V domains shown, Pool 3 format (remarks)) VH: EVQLVESGGGIVQPGGSLRLSCAASGFTFSTYAMNWVRQAPGKGLEWVGRIRTKRNDYATYYADSVKGRFTISRDDSKNTLYLQMNSLKTEDTAVYYCVRHENFGNSYVSWFAHWGQGTLVTVSS VL: ELVVTQEPSLTVSPGGTVTLTCRSSNGAVTSSNYANWVQQKPGQAPRGLIGGTNKRAPGTPARFSGSLEGGKAALTLSGVQPEDEAVYYCALWYPNLWVFGGGTKLTVL |
| 4.1 nM | AC3821 (CD3.317) (scFv, V domains shown, Pool 3 format (remarks)) VH: EVQLVESGGGIVQPGGSLRLSCAASGFTFSTYAMNWVRQAPGKGLEWVGRIRTKRNDYATYYADSVKGRFTISRDDSKNTLYLQMNSLKTEDTAVYYCVRHENFGNSYVSWFAHWGQGTLVTVSS VL: ELVVTQEPSLTVSPGGTVTLTCRSSNGAVTSSNYANWVQQKPGQAPRGLIGGTNKRAPGTPARFSGSLLGGKAGLTLSGVQPEDEAVYYCALWYPNLWVFGGGTKLTVL |
| 3.86 nM | AC3817 (CD3.313) (scFv, V domains shown, Pool 3 format (remarks)) VH: EVQLVESGGGIVQPGGSLRLSCAASGFTFSTYAMNWVRQAPGKGLEWVGRIRTKRNDYATYYADSVKGRFTISRDDSKNTLYLQMNSLKTEDTAVYYCVRHENFGNSYVSWFAHWGQGTLVTVSS VL: ELVVTQEPSLTVSPGGTVTLTCRSSNGAVTSSNYANWVQQKPGQAPRGLIGGTNKRAPGTPARFSGSLNGGKAALTLSGVQPEDEAVYYCALWYPNLWVFGGGTKLTVL |
| 10.9 nM | AC3824 (CD3.320) (scFv, V domains shown, Pool 3 format (remarks)) VH: EVQLVESGGGIVQPGGSLRLSCAASGFTFNTYAMNWVRQAPGKGLEWVGRIRTKTNNYATYYADSVKGRFTISRDDSKNTVYLQMNSLKTEDTAVYYCVRHENFGNSYVSWFAHWGQGTLVTVSS VL: ELVVTQEPSLTVSPGGTVTLTCRSSNGAVTSSNYANWVQQKPGQAPRGLIGGTNKRAPGTPARFSGSALGGKAALTLSGVQPEDEAVYYCALWYPNLWVFGGGTKLTVL |
| 4.31 nM | AC3808 (CD3.304) (scFv, V domains shown, Pool 3 format (remarks)) VH: EVQLVESGGGIVQPGGSLRLSCAASGFTFSTYAMNWVRQAPGKGLEWVGRIRTKRNDYATYYADSVKGRFTISRDDSKNTAYLQMNSLKTEDTAVYYCVRHENFGNSYVSWFAHWGQGTLVTVSS VL: ELVVTQEPSLTVSPGGTVTLTCRSSNGAVTSSNYANWVQQKPGQAPRGLIGGTNKRAPGTPARFSGSLNGGKAALTLSGVQPEDEAVYYCALWYPNLWVFGGGTKLTVL |
| 4.53 nM | AC3815 (CD3.311) (scFv, V domains shown, Pool 3 format (remarks)) VH: EVQLVESGGGIVQPGGSLRLSCAASGFTFSTYAMNWVRQAPGKGLEWVGRIRTKRNDYATYYADSVKGRFTISRDDSKNTLYLQMNSLKTEDTAVYYCVRHENFGNSYVSWFAHWGQGTLVTVSS VL: ELVVTQEPSLTVSPGGTVTLTCRSSNGAVTSSNYANWVQQKPGQAPRGLIGGTNKRAPGTPARFSGSALGGKAALTLSGVQPEDEAVYYCALWYPNLWVFGGGTKLTVL |
| 5.56 nM | AC3812 (CD3.308) (scFv, V domains shown, Pool 3 format (remarks)) VH: EVQLVESGGGIVQPGGSLRLSCAASGFTFSTYAMNWVRQAPGKGLEWVGRIRTKRNDYATYYADSVKGRFTISRDDSKNTAYLQMNSLKTEDTAVYYCVRHENFGNSYVSWFAHWGQGTLVTVSS VL: ELVVTQEPSLTVSPGGTVTLTCRSSNGAVTSSNYANWVQQKPGQAPRGLIGGTNKRAPGTPARFSGSLLGGKAGLTLSGVQPEDEAVYYCALWYPNLWVFGGGTKLTVL |
| 3.99 nM | AC3820 (CD3.316) (scFv, V domains shown, Pool 3 format (remarks)) VH: EVQLVESGGGIVQPGGSLRLSCAASGFTFSTYAMNWVRQAPGKGLEWVGRIRTKRNDYATYYADSVKGRFTISRDDSKNTLYLQMNSLKTEDTAVYYCVRHENFGNSYVSWFAHWGQGTLVTVSS VL: ELVVTQEPSLTVSPGGTVTLTCRSSNGAVTSSNYANWVQQKPGQAPRGLIGGTNKRAPGTPARFSGSLDGGKAALTLSGVQPEDEAVYYCALWYPNLWVFGGGTKLTVL |
| 5.09 nM | AC3810 (CD3.306) (scFv, V domains shown, Pool 3 format (remarks)) VH: EVQLVESGGGIVQPGGSLRLSCAASGFTFSTYAMNWVRQAPGKGLEWVGRIRTKRNDYATYYADSVKGRFTISRDDSKNTAYLQMNSLKTEDTAVYYCVRHENFGNSYVSWFAHWGQGTLVTVSS VL: ELVVTQEPSLTVSPGGTVTLTCRSSNGAVTSSNYANWVQQKPGQAPRGLIGGTNKRAPGTPARFSGSLGGGKAALTLSGVQPEDEAVYYCALWYPNLWVFGGGTKLTVL |
| 5.09 nM | AC3806 (CD3.302) (scFv, V domains shown, Pool 3 format (remarks)) VH: EVQLVESGGGIVQPGGSLRLSCAASGFTFSTYAMNWVRQAPGKGLEWVGRIRTKRNDYATYYADSVKGRFTISRDDSKNTAYLQMNSLKTEDTAVYYCVRHENFGNSYVSWFAHWGQGTLVTVSS VL: ELVVTQEPSLTVSPGGTVTLTCRSSNGAVTSSNYANWVQQKPGQAPRGLIGGTNKRAPGTPARFSGSALGGKAALTLSGVQPEDEAVYYCALWYPNLWVFGGGTKLTVL |
| 4.12 nM | AC3816 (CD3.312) (scFv, V domains shown, Pool 3 format (remarks)) VH: EVQLVESGGGIVQPGGSLRLSCAASGFTFSTYAMNWVRQAPGKGLEWVGRIRTKRNDYATYYADSVKGRFTISRDDSKNTLYLQMNSLKTEDTAVYYCVRHENFGNSYVSWFAHWGQGTLVTVSS VL: ELVVTQEPSLTVSPGGTVTLTCRSSNGAVTSSNYANWVQQKPGQAPRGLIGGTNKRAPGTPARFSGSGLGGKAALTLSGVQPEDEAVYYCALWYPNLWVFGGGTKLTVL |
| 3.4 nM | AC3819 (CD3.315) (scFv, V domains shown, Pool 3 format (remarks)) VH: EVQLVESGGGIVQPGGSLRLSCAASGFTFSTYAMNWVRQAPGKGLEWVGRIRTKRNDYATYYADSVKGRFTISRDDSKNTLYLQMNSLKTEDTAVYYCVRHENFGNSYVSWFAHWGQGTLVTVSS VL: ELVVTQEPSLTVSPGGTVTLTCRSSNGAVTSSNYANWVQQKPGQAPRGLIGGTNKRAPGTPARFSGSLGGGKAALTLSGVQPEDEAVYYCALWYPNLWVFGGGTKLTVL |
| 6.08 nM | AC3807 (CD3.303) (scFv, V domains shown, Pool 3 format (remarks)) VH: EVQLVESGGGIVQPGGSLRLSCAASGFTFSTYAMNWVRQAPGKGLEWVGRIRTKRNDYATYYADSVKGRFTISRDDSKNTAYLQMNSLKTEDTAVYYCVRHENFGNSYVSWFAHWGQGTLVTVSS VL: ELVVTQEPSLTVSPGGTVTLTCRSSNGAVTSSNYANWVQQKPGQAPRGLIGGTNKRAPGTPARFSGSGLGGKAALTLSGVQPEDEAVYYCALWYPNLWVFGGGTKLTVL |
| 4.1 nM | AC3814 (CD3.310) (scFv, V domains shown, Pool 3 format (remarks)) VH: EVQLVESGGGIVQPGGSLRLSCAASGFTFSTYAMNWVRQAPGKGLEWVGRIRTKRNDYATYYADSVKGRFTISRDDSKNTLYLQMNSLKTEDTAVYYCVRHENFGNSYVSWFAHWGQGTLVTVSS VL: ELVVTQEPSLTVSPGGTVTLTCRSSNGAVTSSNYANWVQQKPGQAPRGLIGGTNKRAPGTPARFSGSLLGGKAALTLSGVQPEDEAVYYCALWYPNLWVFGGGTKLTVL |
